Laboratory results reported in patent publication US20210032351A1 (XDCEXPLORER SHANGHAI, published 2021).

B1: Murine anti-75G7 (antibody, V domains shown)
VH: EVQLQQSGPELVKPGASVKIPCKASGYTFTDYNMDWVKQSHGKSLEWIGDINPNNGDTIYNQKFKGKATLTVDKSSSTAYMELRSLTSEDTAVYYCARGDYDGYYPVYYAMDYWGQGTSVTVSS
VL: ENVLTQSPAIMSASPGEKVTMTCRASSSVSSSYLHWYQQKSGASPKLWIFSTSNLAAGVPARFSGSGSGTSYSLTVSSVEAEDAATYYCQQYSGYPLTFGAGTKLELK
notes: murine hybridoma antibody; also called 75G7C6
B2: Chimeric antibody 75G7 (antibody, human IgG1, V domains shown)
VH: B1 VH
VL: B1 VL
notes: also called c75G7C6; chimeric antibody c75G7C6

What was measured:
[1] = molecular target: T1, human EGFRvIII-hFc protein (human, UniProt P00533 25-645); assay: ELISA, coated EGFRvIII-hFc, antibody 0.0001 nM
T1 construct: extracellular domain; made in HEK293 cells, purified on protein A; also called immunogen A; hFc-tagged EGFRvIII protein; not shown: human IgG Fc fragment (hFc) of the pCpC vector
Method in brief: (§1)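 Coat: EGFRvIII-hFc 1.0 μg/mL, 4° C o/n. Block: 1% BSA/PBS-Tween, 2 h RT. Ab 2 h 37° C; HRP 2° Ab 2 h 37° C. TMB 30 min, HCl stop, A450.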

[2] = molecular target: T1, human EGFRvIII-hFc protein; assay: ELISA, coated EGFRvIII-hFc, antibody 0.01 nM
Method in brief: as §1

[3] = molecular target: T1, human EGFRvIII-hFc protein; assay: ELISA, coated EGFRvIII-hFc, antibody 1 nM
Method in brief: as §1

[4] = molecular target: T1, human EGFRvIII-hFc protein; assay: ELISA, coated EGFRvIII-hFc, antibody 100 nM
Method in brief: as §1

[5] = molecular target: T1, human EGFRvIII-hFc protein; assay: ELISA, coated EGFRvIII-hFc, antibody 10 nM
Method in brief: as §1

[6] = molecular target: T2, human EGFRvIII protein on the cell surface (human, UniProt P00533 25-1210); assay: FACS on CHOk1-EGFRvIII cells
T2 construct: whole, on cells; the cell line is named under assay; also called hEGFRvIII; U87MG-hEGFRvIII
Method: The desired cells are subjected to an expanded culture to 90% confluence in a T-75 cell culture flask; the medium is sucked out, and the cells are washed twice with a HBSS buffer (Hanks Balanced Salt Solution) (purchased from Invitrogen), and then treated with an enzyme-free cell dissociation solution (Versene solution: purchased from Life Technology) and collected. The cells are washed twice with the HBSS buffer and are counted, and then the cells are diluted with the HBSS buffer to 2×10⁶ cells/ml, added with 1% goat serum blocking solution, with the percentage being the mass percentage, and incubated on ice for 30 minutes, and then centrifugally washed twice with the HBSS buffer. The collected cells are suspended to 2×10⁶ cells/mL with an FACS buffer (HBSS+1% BSA, with the percentage being the mass percentage), added to a 96-well FACS reaction plate at 100 μL/well, then added with 100 μL/well of the purified EGFRvIII antibody (samples to be tested) obtained in example 2, and incubated on ice for 2 hours. The plate is centrifugally washed twice with the FACS buffer, added with 100 μL/well of a fluorescence (Alexa 488) labeled secondary antibody (purchased from Invitrogen), and then incubated on ice for 1 hour. The plate is centrifugally washed 3 times with the FACS buffer, added with 100 μL/well of a fixing solution [4% (v/v) paraformaldehyde] for suspending the cells, and centrifugally washed twice with the FACS buffer after 10 minutes. The cells are suspended in 100 μL of the FACS buffer, and the results are detected and analyzed by FACS (FACS Calibur, purchased from BD). Data analysis is performed by using the software (CellQuest) to obtain the mean fluorescence intensity (MFI) of the cells. Data is further analyzed by using the software (GraphPad Prism5) to perform data fitting and calculate EC50. […] A431 cells (human epidermal cell cancer cell lines) have a large amount of wild-type EGFR protein expressed on the surface thereof.

[7] = molecular target: T3, human wild-type EGFR protein on the cell surface (human, UniProt P00533 25-1210); assay: FACS, MFI on A431 cells over MFI on normal primary hepatocytes; ratio of MFI on A431 to MFI on hepatocytes
T3 construct: whole, on cells; Endogenous on A431, HEB, U87MG cells and normal human primary hepatocytes; transfected on CHOk1-EGFR cells; The cell is named under assay; also called A431; HEB

Binder | OD450 nm [1] | OD450 nm [2] | OD450 nm [3] | OD450 nm [4] | OD450 nm [5] | EC50 [6] [nM] | Maximum mean fluorescence intensity [6] [MFI] | Selective window (MFI A431/Hepatocytes) [7] [fold]
B1 | 0.07 | 0.06 | 0.09 | 0.56 | 0.19 | – | – | –
B2 | – | – | – | – | – | 10.5 | 112000 | 26.5
